Experiment [1] concerns the target T1, human FcγRIIaH extracellular domain, C-terminal His-tag (human, UniProt P12318 34-217).
T1 construct: also called human FcγRIIa (type H); FcgRIIaH; not shown: His-tag added to the C-terminus
T1 sequence: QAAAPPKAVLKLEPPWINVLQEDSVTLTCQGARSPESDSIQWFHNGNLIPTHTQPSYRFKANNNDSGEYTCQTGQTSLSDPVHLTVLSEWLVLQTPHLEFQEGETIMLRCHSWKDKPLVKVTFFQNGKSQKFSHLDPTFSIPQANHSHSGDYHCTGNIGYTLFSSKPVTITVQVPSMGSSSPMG
Description: SPR; KD of SG1 divided by KD of variant.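 Also: relative to parent M103205H795-SG1 carrying the SG1 human heavy chain constant region.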

The target of experiment [2] is T2, human FcγRIIaR extracellular domain, C-terminal His-tag (human, UniProt P12318 34-217).
T2 construct: also called human FcγRIIa (type R); FcgRIIaR; not shown: His-tag added to the C-terminus
T2 chain: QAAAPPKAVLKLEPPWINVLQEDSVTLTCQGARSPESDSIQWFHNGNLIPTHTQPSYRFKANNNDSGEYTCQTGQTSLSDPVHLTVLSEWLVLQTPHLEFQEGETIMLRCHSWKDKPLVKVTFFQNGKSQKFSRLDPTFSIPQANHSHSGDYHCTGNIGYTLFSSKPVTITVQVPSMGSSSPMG
Put plainly: SPR; KD of SG1 divided by KD of variant.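 Also: relative to parent M103205H795-SG1 carrying the SG1 human heavy chain constant region.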

Experiment [3] concerns the target T3, human FcγRIIb extracellular domain, C-terminal His-tag (human, UniProt P31994 43-217).
T3 construct: also called FcgRIIb; not shown: His-tag added to the C-terminus
T3 sequence: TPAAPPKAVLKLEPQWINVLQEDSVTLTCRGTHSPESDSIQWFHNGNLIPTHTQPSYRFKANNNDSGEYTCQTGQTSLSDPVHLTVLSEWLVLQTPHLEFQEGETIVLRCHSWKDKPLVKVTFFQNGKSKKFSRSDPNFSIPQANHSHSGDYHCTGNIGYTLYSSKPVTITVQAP
Put plainly: SPR; KD of SG1 divided by KD of variant.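 Also: relative to parent M103205H795-SG1 carrying the SG1 human heavy chain constant region.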

Experiment [4] has as its target T4, human FcγRIIIaV extracellular domain, C-terminal His-tag (human, UniProt P08637 17-208).
T4 construct: also called FcgRIIIaV; not shown: His-tag added to the C-terminus
Description: SPR; KD of SG1 divided by KD of variant.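 Also: relative to parent M103205H795-SG1 carrying the SG1 human heavy chain constant region.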

The target in experiment [5] is T1, human FcγRIIaH extracellular domain, …. Put plainly: SPR (BIACORE), antibody captured, soluble FcgR as analyte, 25C.
For experiment [6], the target named is T2, human FcγRIIaR extracellular domain, …. Described as above.
The target in experiment [7] is T3, human FcγRIIb extracellular domain, …. The experiment is described as above.
In experiment [8] the target is T4, human FcγRIIIaV extracellular domain, …. The experiment is described as above.

T4 sequence (P08637 17-208 F176V): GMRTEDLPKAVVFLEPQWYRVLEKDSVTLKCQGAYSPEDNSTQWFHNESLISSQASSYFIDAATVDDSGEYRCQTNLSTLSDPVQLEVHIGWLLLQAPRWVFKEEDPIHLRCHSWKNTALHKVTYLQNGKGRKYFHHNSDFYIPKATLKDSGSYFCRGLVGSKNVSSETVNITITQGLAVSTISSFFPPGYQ

B1: MS103240H795-TT32/M103202L1045-SK1 (antibody, human IgG1, kappa)
heavy: QVQLVESGGGLVQPGGSLRLSCAVSGIDLSHDDISWVRQAPGKGLEWVSIISYAGSTYYASWAKGRLTISKDTSKNQVVLTMTNMDPVDTATYYCARGVPAYSHGGDLWGQGTLVTVSSASTKGPSVFPLAPSSKSTSGGTAALGCLVKDYFPEPVTVSWNSGALTSGVHTFPAVLQSSGLYSLSSVVTVPSSSLGTQTYICNVNHKPSNTKVDKKVEPKSCDKTHTCPPCPAPEYLGGDSVFLFPPKPKDVLMISRTPEVTCVVIDVSHEDPEVKFNWYVDGVEVHNAKTKPREEQYNSTYRVVSVLPVLHRDWLNGKEYKCKVSNKALPKPIEKTISKAKGQRREPQVYTLPPSREEMTKNQVSLTCLVKGFYPSDIAVEWESNGQPENNYKTTPPVLDSDGSFFLYSKLTVDKSRWQQGNVFSCSVMHEALHNHYTQKSLSLSP
light: DIVMTQSPATLSLSPGERATLSCTTSQSVYHENWLSWFQQKPGQPPKLLIYWASTLAYGVPSRFSGSGSGTDFTLTISSLQPEDAATYYCAGGYGGGRYAFGQGTKVEIKRTVAAPSVFIFPPSDEQLKSGTASVVCLLNNFYPREAKVQWKVDNALQSGNSQESVTEQDSKDSTYSLSSTLTLSKADYEKHKVYACEVTHQGLSSPVTKSFNRGEC
notes: CH = SG1 with L234Y/P238D/T250V/V264I/T307P/Q311R/A330K/P343R (EU numbering)
Take B1: the “KD fold (SG1 = 1)” value in experiment [1] stood at 0.015 fold; in experiment [2] it was 0.09 fold; in experiment [3], 14.5 fold; in experiment [4] it was 0.007 fold. Besides, the Kd was determined as 50 µM in experiment [5], 12 µM in experiment [6], 0.4 µM in experiment [7] and 110 µM in experiment [8].

B2: MS103240H795-TT34/M103202L1045-SK1 (antibody, human IgG1, kappa)
heavy: QVQLVESGGGLVQPGGSLRLSCAVSGIDLSHDDISWVRQAPGKGLEWVSIISYAGSTYYASWAKGRLTISKDTSKNQVVLTMTNMDPVDTATYYCARGVPAYSHGGDLWGQGTLVTVSSASTKGPSVFPLAPSSKSTSGGTAALGCLVKDYFPEPVTVSWNSGALTSGVHTFPAVLQSSGLYSLSSVVTVPSSSLGTQTYICNVNHKPSNTKVDKKVEPKSCDKTHTCPPCPAPEYLGGDSVFLFPPKPKDVLMISRTPEVTCVVIDVAHEDPEVKFNWYVDGVEVHNAKTKPREEQYNSTYRVVSVLPVLHRDWLNGKEYKCKVSNKALPKPIEKTISKAKGQRREPQVYTLPPSREEMTKNQVSLTCLVKGFYPSDIAVEWESNGQPENNYKTTPPVLDSDGSFFLYSKLTVDKSRWQQGNVFSCSVMHEALHNHYTQKSLSLSP
light: DIVMTQSPATLSLSPGERATLSCTTSQSVYHENWLSWFQQKPGQPPKLLIYWASTLAYGVPSRFSGSGSGTDFTLTISSLQPEDAATYYCAGGYGGGRYAFGQGTKVEIKRTVAAPSVFIFPPSDEQLKSGTASVVCLLNNFYPREAKVQWKVDNALQSGNSQESVTEQDSKDSTYSLSSTLTLSKADYEKHKVYACEVTHQGLSSPVTKSFNRGEC
notes: CH = SG1 with L234Y/P238D/T250V/V264I/S267A/T307P/Q311R/A330K/P343R (EU numbering)
B2: the “KD fold (SG1 = 1)” value came out at 0.034 fold in experiment [1], 0.12 fold in experiment [2], 11.8 fold in experiment [3] and 0.008 fold in experiment [4]. Besides, the Kd in experiment [5] amounted to 22 µM; in experiment [6] it was 8.9 µM; in experiment [7], 0.49 µM; in experiment [8] it was 96 µM.

B3: MS103240H795-TT33/M103202L1045-SK1 (antibody, human IgG1, kappa)
heavy: QVQLVESGGGLVQPGGSLRLSCAVSGIDLSHDDISWVRQAPGKGLEWVSIISYAGSTYYASWAKGRLTISKDTSKNQVVLTMTNMDPVDTATYYCARGVPAYSHGGDLWGQGTLVTVSSASTKGPSVFPLAPSSKSTSGGTAALGCLVKDYFPEPVTVSWNSGALTSGVHTFPAVLQSSGLYSLSSVVTVPSSSLGTQTYICNVNHKPSNTKVDKKVEPKSCDKTHTCPPCPAPEYLGGDSVFLFPPKPKDVLMISRTPEVTCVVIDVSHEDPEVKFNWYVDGVEVHNAKTKPREEQYNSTYRVVSVLPVLHRDWLNGKEYKCKVSNKALPKPIEKTISKAKGQPREPQVYTLPPSREEMTKNQVSLTCLVKGFYPSDIAVEWESNGQPENNYKTTPPVLDSDGSFFLYSKLTVKKSRWQQGNVFSCSVMHEALHNHYTQKSLSLSP
light: DIVMTQSPATLSLSPGERATLSCTTSQSVYHENWLSWFQQKPGQPPKLLIYWASTLAYGVPSRFSGSGSGTDFTLTISSLQPEDAATYYCAGGYGGGRYAFGQGTKVEIKRTVAAPSVFIFPPSDEQLKSGTASVVCLLNNFYPREAKVQWKVDNALQSGNSQESVTEQDSKDSTYSLSSTLTLSKADYEKHKVYACEVTHQGLSSPVTKSFNRGEC
notes: CH = SG1 with L234Y/P238D/T250V/V264I/T307P/Q311R/A330K/D413K (EU numbering)
For the molecule B3, the “KD fold (SG1 = 1)” value was 0.018 fold in experiment [1], 0.09 fold in experiment [2], 16.1 fold in experiment [3] and 0.002 fold in experiment [4]. For the same molecule, the Kd worked out at 42 µM in experiment [5], 12 µM in experiment [6], 0.36 µM in experiment [7] and 440 µM in experiment [8].

B4: MS103240H795-TT35/M103202L1045-SK1 (antibody, human IgG1, kappa)
heavy: QVQLVESGGGLVQPGGSLRLSCAVSGIDLSHDDISWVRQAPGKGLEWVSIISYAGSTYYASWAKGRLTISKDTSKNQVVLTMTNMDPVDTATYYCARGVPAYSHGGDLWGQGTLVTVSSASTKGPSVFPLAPSSKSTSGGTAALGCLVKDYFPEPVTVSWNSGALTSGVHTFPAVLQSSGLYSLSSVVTVPSSSLGTQTYICNVNHKPSNTKVDKKVEPKSCDKTHTCPPCPAPEYLGGDSVFLFPPKPKDVLMISRTPEVTCVVIDVAHEDPEVKFNWYVDGVEVHNAKTKPREEQYNSTYRVVSVLPVLHRDWLNGKEYKCKVSNKALPKPIEKTISKAKGQPREPQVYTLPPSREEMTKNQVSLTCLVKGFYPSDIAVEWESNGQPENNYKTTPPVLDSDGSFFLYSKLTVKKSRWQQGNVFSCSVMHEALHNHYTQKSLSLSP
light: DIVMTQSPATLSLSPGERATLSCTTSQSVYHENWLSWFQQKPGQPPKLLIYWASTLAYGVPSRFSGSGSGTDFTLTISSLQPEDAATYYCAGGYGGGRYAFGQGTKVEIKRTVAAPSVFIFPPSDEQLKSGTASVVCLLNNFYPREAKVQWKVDNALQSGNSQESVTEQDSKDSTYSLSSTLTLSKADYEKHKVYACEVTHQGLSSPVTKSFNRGEC
notes: CH = SG1 with L234Y/P238D/T250V/V264I/S267A/T307P/Q311R/A330K/D413K (EU numbering)
On to B4, for which the “KD fold (SG1 = 1)” value turned out to be 0.03 fold in experiment [1], 0.12 fold in experiment [2], 13.5 fold in experiment [3] and 0.004 fold in experiment [4]. For the same molecule, the Kd in experiment [5] is 25 µM; in experiment [6] it was 9 µM; in experiment [7] it was 0.43 µM; in experiment [8], 180 µM.

Source of the values: patent US20200317768A1 (published 2020).
